Measured values reported in US20250340658A1 (TWIST BIOSCIENCE, published 2025).
Where two headings read alike, the source gives them in different places.

Experiments:
[1] = target: T1, full length human GLP-1R with N-terminal FLAG tag and C-terminal GFP tag, on CHO cells (human, UniProt P43220 24-463); experiment: flow cytometry titration, CHO GLP1R cells
T1 construct: whole, on cells; the cell line itself is tied to UniProt P43220; also called FLAG-GLP-1R-GFP; CHO-GLP-1R
Method: (§1) GLP-1R IgG clones were tested in a binding assay coupled to flow cytometry analysis as follows: FLAG-GLP-1R-GFP expressing CHO cells (CHO-GLP-1R) and CHO-parent cells were incubated with 100 nM IgG for 1 h on ice, washed three times and incubated with Alexa 647 conjugated goat-anti-human antibody (1:200) (Jackson ImmunoResearch Laboratories, 109-605-044) for 30 min on ice, followed by three washes, centrifuging to pellet the cells between each washing step. All incubations and washes were in buffer containing PBS+1% BSA. […] Cells were analyzed by flow cytometry and hits (a hit is an IgG that specifically binds to CHO-GLP-1R) were identified by measuring the GFP signal against the Alexa 647 signal. Flow cytometry data of binding assays with 100 nM IgG are presented as dot plots. Analyses of binding assays with IgG titrations are presented as binding curves plotting IgG concentrations against MFI (mean fluorescence intensity).

[2] = target: T1, full length human GLP-1R with …; experiment: flow cytometry, GLP1R-expressing CHO cells
Method: as §1

[3] = target: T1, full length human GLP-1R with …; experiment: flow cytometry, expressing vs parent CHO cells
Method: as §1

[4] = target: T1, full length human GLP-1R with …; experiment: flow cytometry, expressing vs parent CHO cells; remark: listed apart in the source
Method: as §1

[5] = target: T1, full length human GLP-1R with …; experiment: flow cytometry, expressing minus parent CHO cells
Method: as §1

Binder	Bmax [1]	Median RL1-H of Expressing Singlets [2]	MFI Ratio [3]	MFI Ratio [4]	Subtraction [5]	EC50 [1] [nM]
GLP1R-221-065 (antibody, V domains shown, IgG) VH: QVQLVESGGGVVQPGRSLRLSCAASGFTFNNYAMHWVRQAPGKGLEWVAVISYDRSNEYYADSVKGRFTISRDNSKNTLYLQMNSLRAEDTAVYYCAKHMSMQEGAVTGDGQAAKEFIAWLVKGRVRADLVGDAFDVWGQGTLVTVSS VL: QSVLTQPPSVSAAPGQKVTISCSGTTSNIANNFVSWYQQLPGTAPKLLIYDHNKRPSGIPDRFSGSKSGTSATLGITGLQTGDEADYYCGTWDTSLSAGAFGGGTKLTVL	798000	273000	915	914	272000	
GLP1R-221-017 (antibody, V domains shown, IgG) VH: QVQLVESGGGVVQPGRSLRLSCAASGFTFSDYGVHWVRQAPGKGLEWVAFISYDESNKYYADSVKGRFTISRDNSKNTLYLQMNSLRAEDTAVYYCAKHMSMQEGAVTGEYQAAKEFIAWLVKGRVRADLVGDAFDVWGQGTLVTVSS VL: QSVLTQPPSVSAAPGQKVTISCSGSSSNIGNTYVSWYQQLPGTAPKLLIYDDYKRPSGIPDRFSGSKSGTSATLGITGLQTGDEADYYCATWDATLNTGVFGGGTKLTVL	250000	241000	1480	1480	240000	27.6
GLP1R-221-066 (antibody, V domains shown, IgG) VH: QVQLVESGGGVVQPGRSLRLSCAASGFTFNNYAMHWVRQAPGKGLEWVAVISYDRSNEYYADSVKGRFTISRDNSKNTLYLQMNSLRAEDTAVYYCAKHMSMQEGAVTGEGQAIKEFIAWLVKGRVRADLVGDAFDVWGQGTLVTVSS VL: QSVLTQPPSVSAAPGQKVTISCSGSSSNIGNNYLSWYQQLPGTAPKLLIYENNKRPSGIPDRFSGSKSGTSATLGITGLQTGDEADYYCGIWDRSLSAWVFGGGTKLTVL	172000	223000	928	928	222000	57.4
GLP1R-221-075 (antibody, V domains shown, IgG) VH: QVQLVESGGGVVQPGRSLRLSCAASGFTFSNYPMHWVRQAPGKGLEWVAVISYDETNKYYADSVKGRFTISRDNSKNTLYLQMNSLRAEDTAVYYCAKHMSMQEGAVTGEGQAAKEFIAWLVKGIVRADLVGDAFDVWGQGTLVTVSS VL: QSVLTQPPSVSAAPGQKVTISCSGSGSNIGNNDVSWYQQLPGTAPKLLIYDNDKRPAGIPDRFSGSKSGTSATLGITGLQTGDEADYYCGTWDTSLSNYVFGGGTKLTVL	213000	242000	1170	1170	242000	
GLP1R-221-034 (antibody, V domains shown, IgG) VH: QVQLVESGGGVVQPGRSLRLSCAASGFPFSNYGMHWVRQAPGKGLEWVAVISHDRSNKYYADSVKGRFTISRDNSKNTLYLQMNSLRAEDTAVYYCAKHMSMQEGAVTGEGQAVKEFIAWLVKGRVRADLVGDAFDVWGQGTLVTVSS VL: QSVLTQPPSVSAAPGQKVTISCSGSSSNIGNNPVSWYQQLPGTAPKLLIYENDNRPSGIPDRFSGSKSGTSATLGITGLQTGDEADYYCATWDRGLSTGVFGGGTKLTVL	933000	223000	711	711	223000	
GLP1R-221-033 (antibody, V domains shown, IgG) VH: QVQLVESGGGVVQPGRSLRLSCAASGFSFSNYAMHWVRQAPGKGLEWVAVISHDRSNKYYADSVKGRFTISRDNSKNTLYLQMNSLRAEDTAVYYCAKHMSMQEGAVTGEGQAAKDFIAWLVKGRVRADLVGDAFDVWGQGTLVTVSS VL: QSVLTQPPSVSAAPGQKVTISCSGSSSNIGNEYVSWYQQLPGTAPKLLIYDNNKRVSGIPDRFSGSKSGTSATLGITGLQTGDEADYYCATWDTSLNVGVFGGGTKLTVL	167000	240000	1020	1020	240000	9.04
GLP1R-221-084 (antibody, V domains shown, IgG) VH: QVQLVESGGGVVQPGRSLRLSCAASGFAFSNYGMHWVRQAPGKGLEWVAVISSDENNKYYADSVKGRFTISRDNSKNTLYLQMNSLRAEDTAVYYCAKHMSMQEGAVTGEMQAAKEFIAWLVKGRVRADLVGDAFDVWGQGTLVTVSS VL: QSVLTQPPSVSAAPGQKVTISCSGSSSNIADNYVSWYQQLPGTAPKLLIYENNRRPSGIPDRFSGSKSGTSATLGITGLQTGDEADYYCGTWDVSLSVGMFGGGTKLTVL	287000	221000	1070	1070	221000	4.09
GLP1R-221-009 (antibody, V domains shown, IgG) VH: QVQLVESGGGVVQPGRSLRLSCAASGFIFSNYGMHWVRQAPGKGLEWVAVISDEGSNKYYADSVKGRFTISRDNSKNTLYLQMNSLRAEDTAVYYCAKHMSMQEGAVTGAGQAAKEFIAWLVKGRVRADLVGDAFDVWGQGTLVTVSS VL: QSVLTQPPSVSAAPGQKVTISCSGSSSNIGNQYVSWYQQLPGTAPKLLIYDDHKRPSGIPDRFSGSKSGTSATLGITGLQTGDEADYYCGTWDTSLSVGEFGGGTKLTVL	215000	221000	1120	1120	220000	12.5
GLP1R-221-076 (antibody, V domains shown, IgG) VH: QVQLVESGGGVVQPGRSLRLSCAASGFTFNNYPMHWVRQAPGKGLEWVAVISYDETNKYYADSVKGRFTISRDNSKNTLYLQMNSLRAEDTAVYYCAKHMSMQEGAVTGEGQAAKEFIAWLVKGIVRADLVGDAFDVWGQGTLVTVSS VL: QSVLTQPPSVSAAPGQKVTISCSGTSSNIGNNDVSWYQQLPGTAPKLLIYENNKRHSGIPDRFSGSKSGTSATLGITGLQTGDEADYYCLTWDHSLTAYVFGGGTKLTVL	799000	236000	747	747	236000	
GLP1R-221-092 (antibody, V domains shown, IgG) VH: QVQLVESGGGVVQPGRSLRLSCAASGFIFNNYGMHWVRQAPGKGLEWVAFISYGGSNKYYADSVKGRFTISRDNSKNTLYLQMNSLRAEDTAVYYCAKHMSMQEGAVTGEGQAVKEFIAWLVKGRVRADLVGDAFDVWGQGTLVTVSS VL: QSVLTQPPSVSAAPGQKVTISCSGTTSNIANNFVSWYQQLPGTAPKLLIYDNNKRPPGIPDRFSGSKSGTSATLGITGLQTGDEADYYCGTWDTSLSVGMFGGGTKLTVL	145000	232000	712	712	232000	13.3
